These results are taken from patent US20220401560A1, “PEPTIDE ENCAPSULATING FERRITIN” (Ajinomoto Co., Inc., priority 2019, published 2022).

No end group written: not given here.

One test deals with T1, ferritin (FTH) (Homo sapiens, UniProt P02794).
T1 construct: made in house; host or cells: Escherichia coli BL21 (DE3), plasmid pET20-FTH
In words: Search for peptides capable of being encapsulated into ferritin by disassembly/reassembly process, LC-MS detection. The conditions noted are these: encapsulation into ferritin (FTH); three trials. As to the method: Peptides capable of being encapsulated into ferritin by disassembly/reassembly process were searched. In the disassembly/reassembly process, 1 mL of a 50 mM glycine hydrochloride buffer (pH 2.3) containing FTH at a final concentration of 5 mg/mL and the peptide at a final concentration of 0.5 mM, was left to stand at room temperature for 15 minutes. Next, 310 μL of a 1 M Tris hydrochloride buffer (pH 9.0) was added for neutralization, and left to stand at room temperature for 3 hours. After the standing, 1.2 mL of a 50 mM Tris hydrochloride buffer (pH 8.0) was added, and centrifuged (at 15,000 rpm for one minute). Thereafter, 2.5 mL of its supernatant was injected into a desalting column PD-10 (Sephadex G-25 filled product, GE Healthcare Inc.) equilibrated with a 50 mM Tris hydrochloride buffer (pH 8) for the elusion with 3.0 mL of a 50 mM Tris hydrochloride buffer (pH 8.0) to separate non-encapsulated peptides and ferritin. A whole amount (3.0 mL) of the resulting solution was concentrated to 0.1 mL by centrifugal ultrafiltration using Vivaspin 20-100K (GE Healthcare Inc.). The operation of adding 10 mL of a 50 mM Tris hydrochloride buffer to the concentrated solution and then concentrating was repeated twice to remove peptides that were not removed by PD-10 to obtain 0.1 mL of a sample solution. For the LC-MS analysis, 50 p1 of a 1 M glycine hydrochloride buffer (pH 2.3) was added to 50 μL of the sample solution and then the resulting solution was left to stand at room temperature for 15 minutes. To the solution, 900 μL of ethanol was added. Next, the resulting solution was stirred vigorously and then centrifuged (at 15,000 rpm for five minutes) for collection of the supernatant. The supernatant was analyzed using LCMS-2020 (Shimadzu Corporation) as LC-MS, Inertsil (Registered trademark) as a column, ODS-3, particle diameter of 2 μm and 2.1 mm×50 mm (GL science). Thereafter, 10 μL of the sample injected into the column was eluded at a flow rate of 0.2 mL/min for 10 minutes such that a mixing ratio of a solution A (0.1% formic acid/99.9% acetonitrile) and a solution B (50% water/50% acetonitrile) is from 95:5 to 95:5.
The encapsulation of the peptide into ferritin was studied by comparing in terms of the amount of the peptide detected by LC/MS between the sample prepared by encapsulating the peptide into ferritin at the disassembly/reassembly process and the sample prepared simply by mixing ferritin with the peptide. For example, ClAc-FHC was eluted at a retention time of 0.8 minute. […] However, the peak was not observed for the sample prepared by simply mixing the peptide with ferritin without performing the disassembly/reassembly process (FIG. 12B). FIG. 13 to FIG. 17 illustrate LC-MS results for FTH in which the peptide was encapsulated at the disassembly/reassembly process.

Another test has as its system SKBR-3 cell. In words: Cell incorporation test by FACS in SKBR-3 cell. The format is cell-based, human. Particulars: 24 hours, FTH 100, 200 and 400 nM, or peptide without FTH encapsulation at the same peptide concentrations. The procedure: A human breast cancer derived SKBR-3 cell (20,000 cell/well, 96-well plate) was added to 100 μL media that were produced by adding the PKC-F encapsulating FTH to evaluation media (Opti-MEM™ (Thermo Fisher Scientific Inc.)+1% non-essential amino acid solution (Thermo Fisher Scientific Inc.)+1% penicillin—streptomycin (Nacalai Tesque, Inc.)) at final concentrations of 100 nM (PKC-F concentration 0.86 μM), 200 nM (PKC-F concentration 1.72 μM) and 400 nM (PKC-F concentration 3.44 μM), respectively, and then cultured at 37° C. The transferrin receptor TfR was expressed in the SKBR-3 cell. […] After that 100 μL of an Opti-MEM™ medium was added, and the cells were transferred to a plate for fluorescence-activated cell sorting (FACS), and then subjected to centrifugal separation at 400×g for 5 minutes. The cells for each were suspended in a FACS buffer (Attune™ Focusing Fluid, Thermo Fisher Scientific Inc.), and analyzed by FACS (Attune NxT, Thermo Fisher Scientific Inc.).
The cell incorporation of the obtained FAM-SV40 encapsulating FTH was evaluated. […]
After 100 μL of the Opti-MEM™ medium was added, the cells were transferred to the plate for fluorescence-activated cell sorting (FACS), and then subjected to centrifugal separation at 400×g for 5 minutes. […]
(In flow cytometry, cells or beads pass a laser one at a time.)

T1 sequence (P02794 whole entry): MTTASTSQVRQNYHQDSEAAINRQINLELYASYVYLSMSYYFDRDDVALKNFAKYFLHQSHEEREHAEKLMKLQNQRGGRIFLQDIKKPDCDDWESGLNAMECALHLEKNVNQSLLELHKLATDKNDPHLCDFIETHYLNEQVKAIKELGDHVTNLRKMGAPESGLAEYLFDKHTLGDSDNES

For the substance “5(6)-FAM-CGGPKKKRKVG (SEQ ID NO: 10) ({5(6)‑FAM}-CGGPKKKRKVG) [FAM-SV40, fluorescent dye-modified peptide, linear]”, the encapsulation result in the test with ferritin (FTH) was “A (“A” represents peptides with three times of confirmation of encapsulation.)”. For the same substance, the “fluorescence intensity of cells by FACS” value with SKBR-3 cell was “not observed”.
